Assay results as given in PMC4347645.

Biological target: desmoplakin (DP), endogenous (human (endogenous in HEK 293 and SCC9)) (UniProt P15924)
Experiment: proximity ligation

Sequence of GSK3, endogenous in SCC9 cells (P49841 whole entry): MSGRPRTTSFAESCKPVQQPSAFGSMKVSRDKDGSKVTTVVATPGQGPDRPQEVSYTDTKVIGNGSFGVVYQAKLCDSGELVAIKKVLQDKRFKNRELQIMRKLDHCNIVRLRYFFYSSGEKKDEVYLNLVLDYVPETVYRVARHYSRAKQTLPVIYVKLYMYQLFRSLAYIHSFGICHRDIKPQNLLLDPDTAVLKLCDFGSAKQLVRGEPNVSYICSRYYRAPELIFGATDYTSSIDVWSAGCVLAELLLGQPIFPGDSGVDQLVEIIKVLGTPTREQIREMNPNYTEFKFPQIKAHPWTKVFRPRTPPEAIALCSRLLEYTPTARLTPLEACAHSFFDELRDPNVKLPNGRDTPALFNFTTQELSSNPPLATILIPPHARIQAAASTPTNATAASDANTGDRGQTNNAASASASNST
Sequence of desmoplakin (DP), endogenous (human (endogenous in HEK 293 and SCC9)) (P15924 whole entry): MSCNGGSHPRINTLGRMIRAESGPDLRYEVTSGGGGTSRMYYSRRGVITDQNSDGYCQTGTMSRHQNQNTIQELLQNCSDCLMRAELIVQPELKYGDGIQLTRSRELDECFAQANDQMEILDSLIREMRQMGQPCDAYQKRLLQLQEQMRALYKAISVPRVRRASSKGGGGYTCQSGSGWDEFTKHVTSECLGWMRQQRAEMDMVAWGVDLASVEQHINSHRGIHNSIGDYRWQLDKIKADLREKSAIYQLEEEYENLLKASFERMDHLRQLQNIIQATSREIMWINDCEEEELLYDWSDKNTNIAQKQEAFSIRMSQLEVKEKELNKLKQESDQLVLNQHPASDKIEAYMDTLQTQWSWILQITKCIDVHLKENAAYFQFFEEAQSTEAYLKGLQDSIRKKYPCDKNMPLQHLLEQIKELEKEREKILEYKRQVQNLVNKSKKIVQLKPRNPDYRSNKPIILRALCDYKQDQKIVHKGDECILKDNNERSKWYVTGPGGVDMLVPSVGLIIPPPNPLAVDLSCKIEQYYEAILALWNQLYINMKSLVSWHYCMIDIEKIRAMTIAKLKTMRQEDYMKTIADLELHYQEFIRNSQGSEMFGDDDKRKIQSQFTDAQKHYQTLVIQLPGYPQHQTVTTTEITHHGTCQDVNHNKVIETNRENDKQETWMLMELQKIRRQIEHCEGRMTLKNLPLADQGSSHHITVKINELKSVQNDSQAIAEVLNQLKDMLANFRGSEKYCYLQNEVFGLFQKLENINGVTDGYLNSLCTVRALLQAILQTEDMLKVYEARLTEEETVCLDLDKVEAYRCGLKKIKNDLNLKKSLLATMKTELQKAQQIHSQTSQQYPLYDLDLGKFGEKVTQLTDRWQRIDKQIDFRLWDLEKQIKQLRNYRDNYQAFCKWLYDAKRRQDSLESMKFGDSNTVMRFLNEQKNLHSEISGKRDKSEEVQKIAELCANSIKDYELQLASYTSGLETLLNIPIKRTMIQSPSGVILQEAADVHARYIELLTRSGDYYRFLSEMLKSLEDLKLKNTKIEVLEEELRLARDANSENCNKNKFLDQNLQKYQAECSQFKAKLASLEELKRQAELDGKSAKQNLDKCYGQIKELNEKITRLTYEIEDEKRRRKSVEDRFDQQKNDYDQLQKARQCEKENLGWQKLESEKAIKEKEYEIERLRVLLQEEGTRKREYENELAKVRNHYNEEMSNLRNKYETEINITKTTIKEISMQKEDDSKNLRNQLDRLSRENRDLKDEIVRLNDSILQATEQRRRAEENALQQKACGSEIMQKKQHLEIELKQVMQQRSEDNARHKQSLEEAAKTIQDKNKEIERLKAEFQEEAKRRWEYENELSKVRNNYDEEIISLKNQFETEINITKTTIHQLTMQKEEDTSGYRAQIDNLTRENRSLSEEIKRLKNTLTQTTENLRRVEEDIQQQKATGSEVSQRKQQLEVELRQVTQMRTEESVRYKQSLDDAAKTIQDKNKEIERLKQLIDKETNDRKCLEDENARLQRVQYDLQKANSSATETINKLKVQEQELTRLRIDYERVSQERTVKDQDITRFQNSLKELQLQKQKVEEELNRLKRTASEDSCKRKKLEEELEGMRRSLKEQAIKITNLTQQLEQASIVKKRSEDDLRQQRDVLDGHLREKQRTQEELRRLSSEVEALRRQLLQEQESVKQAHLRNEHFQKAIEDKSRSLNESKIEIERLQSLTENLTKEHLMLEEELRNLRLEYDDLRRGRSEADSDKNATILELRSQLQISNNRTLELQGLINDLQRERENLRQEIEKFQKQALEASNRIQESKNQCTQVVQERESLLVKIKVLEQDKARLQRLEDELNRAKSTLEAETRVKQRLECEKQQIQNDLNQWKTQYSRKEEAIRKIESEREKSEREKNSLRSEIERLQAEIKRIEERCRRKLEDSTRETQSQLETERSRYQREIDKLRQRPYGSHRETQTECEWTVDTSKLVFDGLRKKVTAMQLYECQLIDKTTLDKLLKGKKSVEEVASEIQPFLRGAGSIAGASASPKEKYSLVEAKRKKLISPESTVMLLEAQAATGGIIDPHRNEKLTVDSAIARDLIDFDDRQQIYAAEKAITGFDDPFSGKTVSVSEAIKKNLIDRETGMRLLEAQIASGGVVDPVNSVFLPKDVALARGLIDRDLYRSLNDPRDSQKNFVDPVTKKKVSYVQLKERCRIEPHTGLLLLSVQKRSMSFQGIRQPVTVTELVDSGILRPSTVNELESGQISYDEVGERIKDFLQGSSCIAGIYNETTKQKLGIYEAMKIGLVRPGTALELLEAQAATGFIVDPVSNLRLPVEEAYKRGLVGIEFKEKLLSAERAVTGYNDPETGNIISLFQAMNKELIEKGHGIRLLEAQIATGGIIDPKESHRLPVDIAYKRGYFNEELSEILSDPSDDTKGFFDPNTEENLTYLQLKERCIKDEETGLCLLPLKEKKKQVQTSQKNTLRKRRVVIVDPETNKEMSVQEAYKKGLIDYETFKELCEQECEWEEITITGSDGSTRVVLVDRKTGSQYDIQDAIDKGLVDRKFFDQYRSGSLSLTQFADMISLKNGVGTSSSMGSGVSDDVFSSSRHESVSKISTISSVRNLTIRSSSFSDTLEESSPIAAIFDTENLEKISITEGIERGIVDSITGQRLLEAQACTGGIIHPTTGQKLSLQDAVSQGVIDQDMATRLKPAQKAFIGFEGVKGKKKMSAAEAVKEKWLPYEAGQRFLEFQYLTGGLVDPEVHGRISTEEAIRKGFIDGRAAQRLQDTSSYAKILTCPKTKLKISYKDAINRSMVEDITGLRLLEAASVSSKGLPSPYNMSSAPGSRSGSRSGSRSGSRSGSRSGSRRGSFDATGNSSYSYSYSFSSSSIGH

- PLA fluorescent dots, fold over negative control antibody pairings: 20 fold
Substance: GSK3, endogenous in SCC9 cells (from UniProt P49841 1-420) (enzyme)
